Assay [1] has as its target T1, GFP-tagged Plasmepsin V (PmV-GFP), P. falciparum clone DC6 (Plasmodium falciparum).
In assay [2] the target is T1, GFP-tagged Plasmepsin V (PmV-GFP), P. …. The experiment in a line: 3 uM HRPII-PExEl substrate.
Assay [3] shares this target. The experiment in a line: 3 uM HRPII-PExEl substrate. The source holds these as a separate data set.
The target is the same in assay [4]. This is another data set of the same source.
Assay [5] has the same target. The experiment in a line: 3 uM HRPII-PExEl substrate. The source holds these as a separate data set.

Where two headings read alike, the source gives them in different places. Ends that are not written are not given here. * marks the point of attachment. Biotin = O=C1N[C@H]2[C@H](CS[C@H]2CCCCC(=O)*)N1; Octanoyl = CCCCCCCC(=O)*; GABA = NCCCC(=O)O

T1 sequence (Q8I6Z5 whole entry): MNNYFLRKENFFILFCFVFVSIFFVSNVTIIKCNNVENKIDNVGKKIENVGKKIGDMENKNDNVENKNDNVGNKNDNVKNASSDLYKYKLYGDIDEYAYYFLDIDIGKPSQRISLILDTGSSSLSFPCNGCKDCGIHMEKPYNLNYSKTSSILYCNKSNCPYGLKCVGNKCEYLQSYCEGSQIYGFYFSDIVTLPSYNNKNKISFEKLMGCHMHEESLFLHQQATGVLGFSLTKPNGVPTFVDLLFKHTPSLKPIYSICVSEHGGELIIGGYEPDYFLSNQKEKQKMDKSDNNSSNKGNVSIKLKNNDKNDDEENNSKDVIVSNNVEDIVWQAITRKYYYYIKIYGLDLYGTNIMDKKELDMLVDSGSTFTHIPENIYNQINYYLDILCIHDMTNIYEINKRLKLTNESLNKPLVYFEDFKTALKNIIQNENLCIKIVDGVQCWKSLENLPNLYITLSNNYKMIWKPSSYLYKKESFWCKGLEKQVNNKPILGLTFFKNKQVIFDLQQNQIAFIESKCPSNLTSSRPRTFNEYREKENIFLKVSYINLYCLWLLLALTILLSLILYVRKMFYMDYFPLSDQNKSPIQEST

B1: Compound 36, a biotinylated version of Compound 1 (peptide)
peptide: {Biotin-GABA-GABA}-RLLAEA
modifications: also: hydroxyethylamino (HEA) isostere in place of peptide bond Leu3-Ala4
One may read the Ki as the dissociation constant of the complex between target and ligand, obtained from inhibition or displacement. What is called IC50 is the concentration that gives 50% inhibition. Low readings indicate greater potency in that assay, high ones weaker potency in that assay. In turn, B1 displayed a Ki in assay [1] of 22.5 nM. Further, in assay [2], the IC50 worked out at 41.9 nM.

B2: Compound 1 (LG20), RL[L~A]EA (peptide)
peptide: RLLAEA
modifications: also: hydroxyethylamino (HEA) isostere in place of peptide bond Leu3-Ala4
In turn, B2 returned a half-maximal inhibitory concentration (IC50) in assay [3] of 0.37 nM.

B3: Compound 7a (peptide)
chain: RLLYEA
modifications: not fully specified; also: HEA isostere replaces the Leu3-Tyr4 peptide bond
On to B3, for which the Ki in assay [4] worked out at 0.74 nM. The molecule further displayed an IC50 in assay [5] of 1.38 nM.

B4: Compound 37a (octanoyl group at the N-terminus of Compound 7a) (peptide)
peptide: Octanoyl-RLLYEA
modifications: also: hydroxyethylamino (HEA) isostere in place of peptide bond Leu3-Tyr4, carbinol S
B4 registered a Ki in assay [1] of 0.01 nM.

Values taken from PMC4643876 (2015).
